# Test results reported in patent US8383581B2, “Short-chain peptides as parathyroid hormone (PTH) receptor agonist” (Cadila Healthcare Limited, priority 2009, dated 2013).
# Where no end group is shown, it is not given here. [ ]: non-standard residue; d: D form. The star is where a group is joined. Bip(2'-Et-4'-OMe) = CCc1cc(OC)ccc1-c1ccc(C[C@H](N)C(=O)O)cc1; Arg(NO2) = N=C(NCCC[C@H](N)C(=O)O)N[N+](=O)[O-]; αMePhe(2,6-F2) = C[C@](N)(Cc1c(F)cccc1F)C(=O)O; αMePhe(2-F) = C[C@](N)(Cc1ccccc1F)C(=O)O; hhPhe = N[C@@H](CCCc1ccccc1)C(=O)O; hArg = N=C(N)NCCCC[C@H](N)C(=O)O; hCit = NC(=O)NCCCC[C@H](N)C(=O)O; αMeF = C[C@](N)(Cc1ccccc1)C(=O)O; Cit = NC(=O)NCCC[C@H](N)C(=O)O; NMeM = CN[C@@H](CCSC)C(=O)O; Decanoyl = CCCCCCCCCC(=O)*; Ac6c = NC1(C(=O)O)CCCCC1; Nle = CCCC[C@H](N)C(=O)O; Orn = NCCC[C@H](N)C(=O)O; Ac5c = NC1(C(=O)O)CCCC1; Ac3c = NC1(C(=O)O)CC1; Aib = CC(C)(N)C(=O)O
# T1: rat PTH-1R (rat PTHR endogenously expressed on UMR-106 rat osteosarcoma cells) (rat, UniProt P25961 27-591)
# T1 sequence (looked up): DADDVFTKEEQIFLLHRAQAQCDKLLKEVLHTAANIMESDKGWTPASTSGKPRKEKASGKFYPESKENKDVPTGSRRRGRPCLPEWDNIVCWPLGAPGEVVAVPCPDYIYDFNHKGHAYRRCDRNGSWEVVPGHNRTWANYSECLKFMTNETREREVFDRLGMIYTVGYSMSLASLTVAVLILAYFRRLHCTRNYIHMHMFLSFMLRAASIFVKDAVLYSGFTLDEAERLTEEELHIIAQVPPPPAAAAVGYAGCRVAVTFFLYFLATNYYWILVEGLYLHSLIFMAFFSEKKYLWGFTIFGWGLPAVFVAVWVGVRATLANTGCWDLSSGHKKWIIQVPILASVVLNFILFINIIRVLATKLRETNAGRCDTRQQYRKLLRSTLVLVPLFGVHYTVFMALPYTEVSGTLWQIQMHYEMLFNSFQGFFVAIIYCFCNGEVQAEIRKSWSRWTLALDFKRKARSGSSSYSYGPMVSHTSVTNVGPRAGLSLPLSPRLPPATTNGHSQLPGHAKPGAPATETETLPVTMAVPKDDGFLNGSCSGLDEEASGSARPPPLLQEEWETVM
# Target: T1, rat PTH-1R (rat PTHR endogenously …)
# Test: cell-based or functional assay
"cAMP released with respect to control, 1 nM peptide, UMR-106 cells","cAMP released with respect to control, 10 nM peptide, UMR-106 cells","cAMP released with respect to control, 100 nM peptide, UMR-106 cells",Binder
34 percent of control,88 percent of control,116 percent of control,[Ac5c]V[Aib]EIQL[Nle]HQ[Orn]A[Aib][Bip(2'-Et-4'-OMe)][hhPhe] [Seq. ID. 751]
15 percent of control,54 percent of control,69 percent of control,"[Ac3c]V[Aib]EIQ[αMePhe(2-F)][Nle]HQ[hArg]A[Arg(NO2)][αMePhe(2,6-F2)][hhPhe] [Seq. ID. 712]"
56 percent of control,101 percent of control,126 percent of control,[Aib]V[Aib]EIQL[Nle]HQ[hArg]AK[Bip(2'-Et-4'-OMe)] [Seq. ID. 647]
82 percent of control,109 percent of control,110 percent of control,"[Ac5c]V[Aib]EIQ[αMePhe(2,6-F2)][Nle]HQ[hArg]A[Cit][Bip(2'-Et-4'-OMe)][hhPhe] [Seq. ID. 813]"
16 percent of control,57 percent of control,75 percent of control,[Ac5c]V[Aib]EIQL[Nle]HQ[hCit]A[Cit][Bip(2'-Et-4'-OMe)][hhPhe] [Seq. ID. 781]
36 percent of control,98 percent of control,110 percent of control,[Ac5c]V[Aib]EIQL[Nle]HQ[hArg]A[Cit][Bip(2'-Et-4'-OMe)][hhPhe] [Seq. ID. 733]
48 percent of control,102 percent of control,112 percent of control,[Ac3c]V[Aib]EIQL[NMeM]HQ[hArg]AK(Decanoyl)[Bip(2'-Et-4'-OMe)] [Seq. ID. 678]
36 percent of control,98 percent of control,110 percent of control,[Ac5c]V[Ac3c]EIQL[Nle]HQ[hArg]AK(Decanoyl)[Bip(2'-Et-4'-OMe)][hhPhe] [Seq. ID. 637]
12 percent of control,41 percent of control,69 percent of control,[Aib]V[Ac6c]EIQL[Nle]HQ[hArg][Aib]K[αMeF] [Seq. ID. 23]
19 percent of control,51 percent of control,80 percent of control,[Aib]V[Ac5c]EIQ[αMePhe(2-F)][Nle]HQ[hArg]AK[αMeF] [Seq. ID. 30]
38 percent of control,99 percent of control,106 percent of control,"[Ac5c]V[Aib]EIQL[Nle]HQ[αMePhe(2,6-F2)]A[Aib][Bip(2'-Et-4'-OMe)][hhPhe] [Seq. ID. 799]"
19 percent of control,64 percent of control,80 percent of control,"[Ac3c]V[Aib]EIQ[αMePhe(2,6-F2)][Nle]HQ[hArg]A[Arg(NO2)][Bip(2'-Et-4'-OMe)][hhPhe] [Seq. ID. 694]"
